This is an account of results in PMC11108873, “Emergence of a clinical Salmonella enterica serovar 1,4,[5], 12: i:-isolate, ST3606, in China with susceptibility decrease to ceftazidime-avibactam carrying a novel blaCTX-M-261 variant and a blaNDM-5” (European Journal of Clinical Microbiology & Infectious …, 2024).

What all share (assay): purified protein
Conditions in all cases: 50 mM sodium phosphate pH 7.0, 30 °C, BSA added to enzyme dilution

For data set [1], the system named is CC(C)(O/N=C(\C(=O)N[C@@H]1C(=O)N2C(C(=O)[O-])=C(C[n+]3ccccc3)CS[C@H]12)c1csc(N)n1)C(=O)O.
Data set [2] concerns CO/N=C(\C(=O)N[C@@H]1C(=O)N2C(C(=O)[O-])=C(C[N+]3(C)CCCC3)CS[C@H]12)c1csc(N)n1.
In data set [3] the test system is CO/N=C(\C(=O)N[C@@H]1C(=O)N2C(C(=O)O)=C(CSc3nc(=O)c(=O)[nH]n3C)CS[C@H]12)c1csc(N)n1.
Data set [4] concerns CO/N=C(\C(=O)N[C@@H]1C(=O)N2C(C(=O)O)=C(COC(C)=O)CS[C@H]12)c1csc(N)n1.

For orientation: Km means the substrate concentration at which the rate is half of its maximum. One may read the kcat as the number of substrate molecules converted per active site and unit of time at saturation. One may read the kcat/Km as the second-order rate constant that governs catalysis at low substrate concentration. Consider CTX-M-1 (Escherichia coli), for which the Km in data set [1] was 328.8 ± 42 µM; in data set [2] it was 146 ± 21.3 µM; in data set [3], 10.5 ± 1.8 µM; in data set [4], 17.8 ± 2.5 µM. For the same substance, the kcat amounted to 43.6 ± 3.7 s⁻¹ in data set [1], 27.9 ± 8.6 s⁻¹ in data set [2], 105 ± 4.3 s⁻¹ in data set [3] and 111 ± 25 s⁻¹ in data set [4]. The kcat/Km in data set [1] is 130000 M⁻¹ s⁻¹; in data set [2] it was 190000 M⁻¹ s⁻¹; in data set [3], 9.98e+06 M⁻¹ s⁻¹; in data set [4] it was 6.2e+06 M⁻¹ s⁻¹.
